T1: Repulsive guidance molecule A (Mus musculus (Mouse), UniProt Q6PCX7 48-427, GPI anchor at the C-terminus after removal of 428-454. Autocatalytic cleavage between 169 and 170 may split the protein into two disulfide-linked fragments. The letters carry neither.)
T1 sequence: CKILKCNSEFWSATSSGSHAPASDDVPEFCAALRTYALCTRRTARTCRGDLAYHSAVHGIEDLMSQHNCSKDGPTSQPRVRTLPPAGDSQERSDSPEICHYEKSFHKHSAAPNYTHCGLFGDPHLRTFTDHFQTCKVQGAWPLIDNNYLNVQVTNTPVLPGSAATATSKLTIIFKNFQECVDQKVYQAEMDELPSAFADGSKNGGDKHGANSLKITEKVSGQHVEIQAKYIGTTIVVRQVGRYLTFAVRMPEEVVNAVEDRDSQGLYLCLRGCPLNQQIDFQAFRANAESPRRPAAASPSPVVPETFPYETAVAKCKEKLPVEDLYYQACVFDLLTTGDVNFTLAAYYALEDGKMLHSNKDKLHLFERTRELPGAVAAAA


Experiments:
[1] = biological target: Repulsive guidance molecule A (Mus musculus (Mouse)) (UniProt Q6PCX7); assay: cell-based or functional assay
[2] = biological target: T1, Repulsive guidance molecule A; assay: cell-based or functional assay
[3] = biological target: T2, mouse Transferrin Receptor overexpressed on Hek 293 cells (mouse, UniProt Q62351 1-763); assay: cell-based MSD-ECL binding, Hek293/mTfR cells
T2 construct: whole, on cells; also called mTfR; Hek293/mTfR
T2 sequence (Q62351 whole entry): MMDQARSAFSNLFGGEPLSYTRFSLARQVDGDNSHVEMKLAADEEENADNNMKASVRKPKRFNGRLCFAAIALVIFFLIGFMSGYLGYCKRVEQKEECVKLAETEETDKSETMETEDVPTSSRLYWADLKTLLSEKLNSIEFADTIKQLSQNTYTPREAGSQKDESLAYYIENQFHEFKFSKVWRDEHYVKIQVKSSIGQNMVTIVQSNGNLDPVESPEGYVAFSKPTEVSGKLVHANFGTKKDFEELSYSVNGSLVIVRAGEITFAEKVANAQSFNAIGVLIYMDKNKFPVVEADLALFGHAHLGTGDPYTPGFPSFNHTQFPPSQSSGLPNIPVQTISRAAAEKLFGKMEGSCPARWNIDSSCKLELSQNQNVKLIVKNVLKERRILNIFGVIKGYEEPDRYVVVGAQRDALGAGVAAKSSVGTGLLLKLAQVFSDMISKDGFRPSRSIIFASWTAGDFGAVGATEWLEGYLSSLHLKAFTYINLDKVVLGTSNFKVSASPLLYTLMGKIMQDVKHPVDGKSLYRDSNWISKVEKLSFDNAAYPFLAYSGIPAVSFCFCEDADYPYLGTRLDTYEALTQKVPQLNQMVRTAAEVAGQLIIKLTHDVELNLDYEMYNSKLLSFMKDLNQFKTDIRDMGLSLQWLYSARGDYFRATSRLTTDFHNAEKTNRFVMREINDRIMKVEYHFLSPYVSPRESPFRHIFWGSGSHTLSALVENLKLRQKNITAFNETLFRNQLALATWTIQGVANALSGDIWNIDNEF
Procedure: Meso-scale Discovery (MSD) Electrochemiluminescence (ECL) assays to screen for antibodies or DVD-Ig proteins that bind a desired target antigen expressed on the cell surface were performed as follows: Hek 293 cells overexpressing mouse Transferrin Receptor were added onto MSD 96-well plates (MSD Cat# L11 XB-3, lot#2290-EA). The plates which were blocked using blocking buffer (30% FBS Serum (Hyclone) in PBS) at 37° C. for 1 hour. After incubating at room temperature (RT) for 30 minutes with mild agitation, plates were washed with DPBS 3 times and Abs/DVD-Ig proteins (10,000 ng/ml) were added. After incubating for 1 hour at RT, plates were washed 3 times with DPBS and 25 μl of Goat anti-human Sulfo TAG (MSD Cat# R32AC-, Lot# W001162) at 1 μg/ml was added. Following incubation at RT for 1 hour, plates were washed and MSD read buffer was added before reading on a MSD SECTOR Imager 6000. EC50 values were obtained using Xlfit4 software package.

| Binder | BMP Assay IC50 [1] [nM] | BMP Assay IC50 [2] [nM] | also measured |
| --- | --- | --- | --- |
| RGMA(AE12-1)-SS-TfR(AB402) (bispecific antibody, part only; not given: Inner anti-TfR domains, linkers, constant regions, not shown: a dimerising Fc or GST) heavy, part: EVQLVQSGAEVKKPGASVKVSCKASGYTFTSHGISWVRQAPGQGLDWMGWISPYSGNTNYAQKLQGRVTMTTDTSTSTAYMELSSLRSEDTAVYYCARVGSGPYYYMDVWGQGTLVTVSS light, part: QSALTQPRSVSGSPGQSVTISCTGTSSSVGDSIYVSWYQQHPGKAPKLMLYDVTKRPSGVPDRFSGSKSGNTASLTISGLQAEDEADYYCCSYAGTDTLFGGGTKVTVLG | 0.436 | – | – |
| RGMA(AE12-1)-GS-TfR(AB402) (bispecific antibody, part only; not given: anti-TfR domains, constants, not shown: a dimerising Fc or GST) heavy, part: EVQLVQSGAEVKKPGASVKVSCKASGYTFTSHGISWVRQAPGQGLDWMGWISPYSGNTNYAQKLQGRVTMTTDTSTSTAYMELSSLRSEDTAVYYCARVGSGPYYYMDVWGQGTLVTVSSGGGGSGGGGS light, part: QSALTQPRSVSGSPGQSVTISCTGTSSSVGDSIYVSWYQQHPGKAPKLMLYDVTKRPSGVPDRFSGSKSGNTASLTISGLQAEDEADYYCCSYAGTDTLFGGGTKVTVLGGGSGGGGSG | 0.014 | – | – |
| TfR(AB405)-GS-RGMA(AE12-1) (bispecific antibody, part only; not given: anti-TfR domains, constants, not shown: a dimerising Fc or GST) heavy, part: GGGGSGGGGSEVQLVQSGAEVKKPGASVKVSCKASGYTFTSHGISWVRQAPGQGLDWMGWISPYSGNTNYAQKLQGRVTMTTDTSTSTAYMELSSLRSEDTAVYYCARVGSGPYYYMDVWGQGTLVTVSS light, part: GGSGGGGSGQSALTQPRSVSGSPGQSVTISCTGTSSSVGDSIYVSWYQQHPGKAPKLMLYDVTKRPSGVPDRFSGSKSGNTASLTISGLQAEDEADYYCCSYAGTDTLFGGGTKVTVLG | 3.12 | – | – |
| TfR(AB405)-LL-RGMA(AE12-1) (bispecific antibody, part only; not given: Outer anti-TfR domains, linkers, constant regions, not shown: a dimerising Fc or GST) heavy, part: EVQLVQSGAEVKKPGASVKVSCKASGYTFTSHGISWVRQAPGQGLDWMGWISPYSGNTNYAQKLQGRVTMTTDTSTSTAYMELSSLRSEDTAVYYCARVGSGPYYYMDVWGQGTLVTVSS light, part: QSALTQPRSVSGSPGQSVTISCTGTSSSVGDSIYVSWYQQHPGKAPKLMLYDVTKRPSGVPDRFSGSKSGNTASLTISGLQAEDEADYYCCSYAGTDTLFGGGTKVTVLG | 0.701 | – | – |
| RGMA (AE12-1) (antibody, V domains shown) VH: EVQLVQSGAEVKKPGASVKVSCKASGYTFTSHGISWVRQAPGQGLDWMGWISPYSGNTNYAQKLQGRVTMTTDTSTSTAYMELSSLRSEDTAVYYCARVGSGPYYYMDVWGQGTLVTVSS VL: QSALTQPRSVSGSPGQSVTISCTGTSSSVGDSIYVSWYQQHPGKAPKLMLYDVTKRPSGVPDRFSGSKSGNTASLTISGLQAEDEADYYCCSYAGTDTLFGGGTKVTVLG | – | 0.25 | – |
| RGMA(AE12-1)-LS-TfR(AB403) (bispecific antibody) VH: EVQLVQSGAEVKKPGASVKVSCKASGYTFTSHGISWVRQAPGQGLDWMGWISPYSGNTNYAQKLQGRVTMTTDTSTSTAYMELSSLRSEDTAVYYCARVGSGPYYYMDVWGQGTLVTVSSASTKGPSVFPLAPEVQLVESGGGLVQPGGSLRLSCAASGFTFSNYGMHWIRQAPGKGLEWIAMIYYDSSKMNYADTVKGRFTISRDNAKNSLYLQMNSLRAEDTAVYYCAVPTSHYVVDVWGQGTTVTVSS VL: QSALTQPRSVSGSPGQSVTISCTGTSSSVGDSIYVSWYQQHPGKAPKLMLYDVTKRPSGVPDRFSGSKSGNTASLTISGLQAEDEADYYCCSYAGTDTLFGGGTKVTVLGQPKAAPEIVMTQSPATLSVSPGERATLSCQASQDIGNWLAWYQQKPGQSPRLLIYGATSLADGVPARFSGSRSGTEFTLTISSLQSEDFAVYYCLQAYNTPWTFGGGTKVEIK | – | < 0.025 | – |
| RGMA(AE12-1)-SS-TfR(AB403) (bispecific antibody) VH: EVQLVQSGAEVKKPGASVKVSCKASGYTFTSHGISWVRQAPGQGLDWMGWISPYSGNTNYAQKLQGRVTMTTDTSTSTAYMELSSLRSEDTAVYYCARVGSGPYYYMDVWGQGTLVTVSSASTKGPEVQLVESGGGLVQPGGSLRLSCAASGFTFSNYGMHWIRQAPGKGLEWIAMIYYDSSKMNYADTVKGRFTISRDNAKNSLYLQMNSLRAEDTAVYYCAVPTSHYVVDVWGQGTTVTVSS VL: QSALTQPRSVSGSPGQSVTISCTGTSSSVGDSIYVSWYQQHPGKAPKLMLYDVTKRPSGVPDRFSGSKSGNTASLTISGLQAEDEADYYCCSYAGTDTLFGGGTKVTVLGQPKAAPEIVMTQSPATLSVSPGERATLSCQASQDIGNWLAWYQQKPGQSPRLLIYGATSLADGVPARFSGSRSGTEFTLTISSLQSEDFAVYYCLQAYNTPWTFGGGTKVEIK | – | 1.18 | – |
| RGMA(AE12-1)-GS-TfR(AB403) DVD-Ig protein (bispecific antibody, human IgG1, not shown: a dimerising Fc or GST) heavy: EVQLVQSGAEVKKPGASVKVSCKASGYTFTSHGISWVRQAPGQGLDWMGWISPYSGNTNYAQKLQGRVTMTTDTSTSTAYMELSSLRSEDTAVYYCARVGSGPYYYMDVWGQGTLVTVSSGGGGSGGGGSEVQLVESGGGLVQPGGSLRLSCAASGFTFSNYGMHWIRQAPGKGLEWIAMIYYDSSKMNYADTVKGRFTISRDNAKNSLYLQMNSLRAEDTAVYYCAVPTSHYVVDVWGQGTTVTVSS light: QSALTQPRSVSGSPGQSVTISCTGTSSSVGDSIYVSWYQQHPGKAPKLMLYDVTKRPSGVPDRFSGSKSGNTASLTISGLQAEDEADYYCCSYAGTDTLFGGGTKVTVLGGGSGGGGSGEIVMTQSPATLSVSPGERATLSCQASQDIGNWLAWYQQKPGQSPRLLIYGATSLADGVPARFSGSRSGTEFTLTISSLQSEDFAVYYCLQAYNTPWTFGGGTKVEIKR | – | < 0.025 | – |
| TfR(AB405)-SL-RGMA(AE12-1) (bispecific antibody) VH: QVQLVQSGAEVKKPGASVKVSCKASGFTFSNYGMHWIRQAPGQGLEWIAMIYYDSSKMNYADTVKGRFTITRDNSTNTLYMELSSLRSEDTAVYYCAVPTSHYVVDVWGQGTTVTVSSASTKGPEVQLVQSGAEVKKPGASVKVSCKASGYTFTSHGISWVRQAPGQGLDWMGWISPYSGNTNYAQKLQGRVTMTTDTSTSTAYMELSSLRSEDTAVYYCARVGSGPYYYMDVWGQGTLVTVSS VL: EIVMTQSPATLSVSPGERATLSCQASQDIGNWLAWYQQKPGQSPRLLIYGATSLADGVPARFSGSRSGTEFTLTISSLQSEDFAVYYCLQAYNTPWTFGGGTKVEIKRTVAAPSVFIFPPQSALTQPRSVSGSPGQSVTISCTGTSSSVGDSIYVSWYQQHPGKAPKLMLYDVTKRPSGVPDRFSGSKSGNTASLTISGLQAEDEADYYCCSYAGTDTLFGGGTKVTVL | – | 0.73 | – |
| DVD2366 (bispecific antibody, DVD-Ig) VH-VH: EVQLLESGGGLVQPGGSLRLSCAASGFTFSNYGMSWVRQAPGKGLEWVASIRSGGGRTYYSDNVKGRFTISRDNSKNTLYLQMNSLRAEDTAVYYCVRYDHYSGSSDYWGQGTLVTVSSASTKGPQVQLVQSGAEVKKPGASVKVSCKASGFTFSNYGMHWIRQAPGQGLEWIAMIYYDSSKMNYADTVKGRFTITRDNSTNTLYMELSSLRSEDTAVYYCAVPTSHYVVDVWGQGTTVTVSS VL-VL: DVVMTQSPLSLPVTPGEPASISCKSSQSLLDSDGKTYLNWLLQKPGQSPQRLIYLVSKLDSGVPDRFSGSGSGTDFTLKISRVEAEDVGVYYCWQGTHFPRTFGQGTKVEIKRTVAAPEIVMTQSPATLSVSPGERATLSCQASQDIGNWLAWYQQKPGQSPRLLIYGATSLADGVPARFSGSRSGTEFTLTISSLQSEDFAVYYCLQAYNTPWTFGGGTKVEIK | – | – | binding result [3]: no binding (tested: 10,000 ng/ml) |
